# Laboratory results reported in patent publication US20260078398A1, “PLANTS GENETICALLY ENGINEERED FOR INCREASED WATER USE EFFICIENCY AND CARBON INTAKE AND METHODS FOR MAKING AND USING THEM” (The Regents of the University of California, priority 2022, published 2026).
# Numbering of substitutions follows the chain as printed. Names may count otherwise.
# T1: GST-CBC1 (recombinant Arabidopsis Raf-like kinase CBC1 with GST tag)
# T1 sequence (Q9SSA4 whole entry, looked up): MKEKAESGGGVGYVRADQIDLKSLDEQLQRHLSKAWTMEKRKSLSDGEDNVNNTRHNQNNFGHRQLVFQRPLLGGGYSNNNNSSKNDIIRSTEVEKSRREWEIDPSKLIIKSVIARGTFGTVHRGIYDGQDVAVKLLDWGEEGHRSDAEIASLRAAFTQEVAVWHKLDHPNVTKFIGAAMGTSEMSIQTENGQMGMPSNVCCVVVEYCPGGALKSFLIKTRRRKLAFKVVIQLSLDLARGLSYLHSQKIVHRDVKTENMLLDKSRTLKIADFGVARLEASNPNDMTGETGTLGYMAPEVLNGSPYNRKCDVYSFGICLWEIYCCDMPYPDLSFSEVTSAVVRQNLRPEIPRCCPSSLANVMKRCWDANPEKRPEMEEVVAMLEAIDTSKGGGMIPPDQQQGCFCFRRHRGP
# T2: MPK12 (recombinant Arabidopsis MAP kinase MPK12)
# T2 chain: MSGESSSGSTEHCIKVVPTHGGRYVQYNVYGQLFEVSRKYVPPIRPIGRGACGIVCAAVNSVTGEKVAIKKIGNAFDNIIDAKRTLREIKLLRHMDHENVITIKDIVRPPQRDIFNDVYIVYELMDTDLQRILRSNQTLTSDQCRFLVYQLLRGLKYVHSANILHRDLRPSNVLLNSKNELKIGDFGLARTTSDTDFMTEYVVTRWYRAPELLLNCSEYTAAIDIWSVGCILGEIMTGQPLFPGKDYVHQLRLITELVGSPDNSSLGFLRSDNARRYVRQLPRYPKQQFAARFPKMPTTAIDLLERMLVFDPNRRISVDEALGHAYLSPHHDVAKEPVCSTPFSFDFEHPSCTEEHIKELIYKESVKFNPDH
# T3: GST-MPK4 (recombinant Arabidopsis MAP kinase MPK4 with GST tag)
# T3 chain: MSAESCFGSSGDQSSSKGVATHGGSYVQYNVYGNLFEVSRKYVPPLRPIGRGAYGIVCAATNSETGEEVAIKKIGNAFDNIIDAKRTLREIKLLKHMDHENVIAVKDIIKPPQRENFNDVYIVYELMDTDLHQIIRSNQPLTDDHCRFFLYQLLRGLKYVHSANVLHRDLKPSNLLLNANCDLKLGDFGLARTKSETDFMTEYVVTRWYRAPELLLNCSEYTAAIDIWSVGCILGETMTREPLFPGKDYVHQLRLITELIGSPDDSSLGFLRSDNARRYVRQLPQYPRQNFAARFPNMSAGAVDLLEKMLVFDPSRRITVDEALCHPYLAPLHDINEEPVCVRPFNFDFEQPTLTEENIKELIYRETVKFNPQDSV
# B1: His-HT1 (recombinant Arabidopsis HT1 protein kinase, wild type, with His tag) (protein)
# chain: MSGLCFNPFRLRWSLRSKLPLEPSLPNLPCNPSSSKTNRYAEAETMEKKRFDSMESWSMILESENVETWEASKGEREEWTADLSQLFIGNKFASGAHSRIYRGIYKQRAVAVKMVRIPTHKEETRAKLEQQFKSEVALLSRLFHPNIVQFIAACKKPPVYCIITEYMSQGNLRMYLNKKEPYSLSIETVLRLALDISRGMEYLHSQGVIHRDLKSNNLLLNDEMRVKVADFGTSCLETQCREAKGNMGTYRWMAPEMIKEKPYTRKVDVYSFGIVLWELTTALLPFQGMTPVQAAFAVAEKNERPPLPASCQPALAHLIKRCWSENPSKRPDFSNIVAVLEKYDECVKEGLPLTSHASLTKTKKAILDHLKGCVTSISSPFSSSSVPVNA
# B2: HT1-R102K (protein)
# chain: B1 chain with R102K
# B3: HT1-R173Q (protein)
# chain: B1 chain with R173Q
# B4: HT1-A109V (protein)
# chain: B1 chain with A109V
# B5: BdMPK5: recombinant Brachypodium distachyon MAP kinase BdMPK5, SEQ ID NO: 13 (protein)
# chain: MRMEGGGAGPAAAAAAGGAHGLGEAQIKGTLTHGGRYVQYNVYGNLFEVSAKYVPPIRPVGRGACGIICAAINVQTREEVAIKKIGNAFDNQIDAKRTLREVKLLRHMNHENVISIKDIIRPPRRENFNDVYIVYELMDTDLHHLLRSNQPLTDDHCQYFLYQVLRGLKYVHSANVLHRDLRPSNLLLNAKCDLKIGDFGLARTTTETDFMMEYVVTRWYRAPELLLNCSEYTGAIDMWSVGCILGEIATREPLFPGKDYVHQLRLITELLGSPDDTSLGFLRSDNARRYVRSLPQYPKQQFRSRFPNMSSGAMDLLERMLVFDPNKRITVDEALCHPYLASLHEINDEPVCPAPFSFDFEQPSFTEEDIKELIWRESVKFNPEPIH
# modifications: Synthetic: Bd21-3 (WT) BdMPK5
# B6: BdMPK5-D90N: chill1 variant of BdMPK5 protein, SEQ ID NO: 14 (protein)
# chain: B5 chain with D90N
# modifications: Synthetic: Chill1 BdMPK5
# Key:
# [1] = tested on: Brachypodium distachyon; experiment: stomatal conductance after ABA added to the transpiration stream (gas exchange analyzer); format: in vivo; conditions: 2 μM ABA
# Description: We next investigated stomatal closure in response to abscisic acid.
# (top infrared thermal image, bottom photo of the same plants). • (B) Stomatal density and (C) stomatal index were determined using leaf imprints created of the 4th true leaf of plants with 3 independent replicates plants per genotype with 4 images per plant. Circles represent counts per each image while diamonds are the average per each plant. Error bars represent SEM while p-values were obtained from two-tailed t-tests comparing mutant to WT. • (D) Stomatal conductance was quantified using a gas exchange analyzer. […] Data shown are the average of n=3±SEM plants per genotype using 1 leaf per experiment and genotype.
# FIG. 14 (or FIG. 8 of Example 2): Bdmpk5 CRISPR Alleles Show Strong CO2 insensitivity but functional ABA responses. • (A, B) 5 to 6 week old plants were analyzed in time-resolved stomatal conductance analyses. • (A) CRISPR alleles show strongly impaired stomatal responses to CO2 shifts. […] Data shown are the average of n=3±SEM experiments using one leaf per experiment and genotype. • (C,D) Stomatal density (C) and stomatal index (D) were determined using leaf imprints created of the 4th true leaf with 3 replicate plants and genotype. […]
# [2] = biological target: T1, GST-CBC1 (recombinant Arabidopsis …)
# [3] = tested on: MPK4 and HT1; experiment: in vitro pull-down assay, His-HT1 with GST-MPK4; format: binding, Arabidopsis; conditions: pull-down with or without 20 mM NaHCO3
# Description: We therefore investigated a possible binding between MPK4 and HT1 and the effect of HCO3^−.
# FIG. 4. […] CO2 concentration changes were applied as indicated on top (p.p.m.). n=6 experiments, error bars show ±SEM. • (J) Model of plant stomatal CO2 sensor and signaling (see text).
# FIG. 6. […] Precipitated proteins were washed with buffers supplemented with NaHCO3 at the indicated concentrations (0, 2 or 20 mM). See FIG. 4d for an independent experiment. To control for effects of Na^+, 20 mM NaCl (0 mM NaHCO3) for lanes 1 and 4 were included in the buffers; and 18 mM NaCl (2 mM NaHCO3) for lane 3 were included in buffer.
# [4] = biological target: T2, MPK12 (recombinant Arabidopsis MAP …)
# [5] = tested on: MPK4/12, HT1 and CBC1 recombinant proteins; experiment: in vitro phosphorylation assay: NaHCO3-dependent down-regulation of HT1-mediated CBC1 phosphorylation; format: biochemical, Arabidopsis; conditions: isoform replaces wild type protein or is added; 20 mM NaHCO3 vs NaCl control, 30 min
# Description: We tested whether this HT1-mediated activation of CBC1 is inhibited by CO2/bicarbonate by adding NaHCO3 in in vitro phosphorylation reactions. […]
# FIG. 2. […] Histone was used as an artificial protein kinase substrate. • (B) MPK4, HT1 and CBC1 proteins were incubated with NaHCO3 at the indicated concentrations for 30 min, and in vitro phosphorylation assays were performed. • (C) CBC1 band intensities as shown in (B) were measured using IMAGEJ™, n=4 experiments, error bars show ±S.D. • (D) MPK4, HT1 and CBC1 proteins were incubated in reaction buffers adjusted at different pH (6.5 to 8.5) for 30 min, and in vitro phosphorylation assays were performed. • (E) CBC1 band intensities and the density-ratios of ‘+NaHCO3’ to ‘—NaHCO3’ (=+NaCl controls) for each pH condition
# FIG. 3. […] Ambient CO2 concentrations are indicated by the top bars. n=7 experiments, error bars show ±SEM. • (C) Recombinant HT1 (wild type, HT1-G89R or HT1-R173Q) and CBC1 proteins were incubated with MPK4 in the presence or absence of 20 mM NaHCO3 or 20 mM NaCl (−controls) for 30 min, and in vitro phosphorylation assays were performed. • (D) Recombinant MPK12, CBC1 and HT1 (WT or R102K) proteins were incubated with or without 20 mM NaHCO3 or 20 mM NaCl (−controls) for 30 min, and in vitro phosphorylation assays were performed. Histone was used as an artificial kinase substrate. • (E) HT1 (WT or A109V) proteins were used for in vitro phosphorylation assays. Proteins were incubated with or without 20 mM NaHCO3 or 20 mM NaCl (−controls) for 30 min. • (F) Stomatal conductances were analyzed using intact plants of Arabidopsis (Col-0 (WT), cbc1 cbc2, ht1-A109V and cbc1 cbc2 ht1-A109V). CO2 concentration changes were applied as indicated on top (p.p.m.). […]
# [6] = biological target: T3, GST-MPK4 (recombinant Arabidopsis MAP …)
# [7] = biological target: MPK4/12
# [8] = tested on: BdMPK5, HT1 and CBC1; experiment: in vitro phosphorylation assay with GST-CBC1, His-HT1 and His-BdMPK5; format: biochemical, Brachypodium distachyon; conditions: with or without 20 mM NaHCO3, n=2
# Description: Furthermore, this activation of CBC1 is inhibited by elevated CO2/bicarbonate only when HT1, CBC1 and MPK4 or MPK12 are included in the reconstituted reaction (Takahashi et al., 2022). […] The high CO2/bicarbonate response was similar to high CO2 responses found for AtMPK4 and AtMPK12, but not for the close homolog AtMPK11 (Takahashi et al., 2022).
# In vitro phosphorylation assays were performed using GST-CBC1, His-HT1 and His-BdMPK5 (WT or D90N) recombinant proteins with or without 20 mM NaHCO3. Phosphorylation levels of CBC1 (top) and Coomassie brilliant blue (CBB)-stained gels (bottom) are shown. • (B) AlphaFold2-predicted complex of BdMPK5 with HT1. BdMPK5 is shown in red, while HT1 is shown in blue. The BdMPK5-D90 residue, which is mutant in chill1, is colored green, and is predicted, based on the wildtype BdMPK5-HT1 simulation, to lie at the interface of BdMPK5 and HT1.
molecule,measurement,setting,value
"CC1=CC(=O)CC(C)(C)[C@@]1(O)/C=C/C(C)=C\C(=O)O [ABA, abscisic acid]",stomatal conductance response to ABA,[1]; T3 BdMPK5 CRISPR lines,steep decline in conductance
same,stomatal conductance response to ABA,"[1]; chill1 leaves, 5-week old",responded similarly to WT
B1,"CBC1 phosphorylation, in vitro phosphorylation assay with radioactive 32P-ATP (FIG. 5)",[2],We confirmed CBC1 phosphorylation by HT1 using recombinant His-HT1 and GST-CBC1 proteins
B2,HCO3- dependent binding of HT1 isoform with MPK4,[3],did not show a bicarbonate-induced interaction of HT1 with MPK4
same,"NaHCO3-triggered down-regulation of CBC1 phosphorylation and CBC1 activity, in vitro phosphorylation assay with MPK12 and CBC1 (FIG. 3D, n=3)",[4],both of these R102K and A109V mutations disrupt the NaHCO3-triggered down-regulation of CBC1 phosphorylation and CBC1 activity
same,NaHCO3-mediated down-regulation of CBC1 phosphorylation/activity with the protein isoform in the reaction,[5],disrupt the NaHCO3-triggered down-regulation of CBC1 phosphorylation and CBC1 activity
B3,HCO3- dependent binding of HT1 isoform with MPK4,[3],partially interact with MPK4
same,"NaHCO3-dependent CBC1 downregulation, in vitro phosphorylation assay with MPK4 and CBC1 (FIG. 3C)",[6],the R173Q mutation partly impaired the NaHCO3-dependent CBC1 downregulation
same,NaHCO3-mediated down-regulation of CBC1 phosphorylation/activity with the protein isoform in the reaction,[5],partly impaired the NaHCO3-dependent CBC1 downregulation
B4,HCO3- dependent binding of HT1 isoform with MPK4,[3],did not show a bicarbonate-induced interaction of HT1 with MPK4
same,"NaHCO3-triggered down-regulation of CBC1 phosphorylation and CBC1 activity, in vitro phosphorylation assay with MPK4/12 and CBC1 (FIG. 3E, n=4)",[7],both of these R102K and A109V mutations disrupt the NaHCO3-triggered down-regulation of CBC1 phosphorylation and CBC1 activity
same,NaHCO3-mediated down-regulation of CBC1 phosphorylation/activity with the protein isoform in the reaction,[5],disrupt the NaHCO3-triggered down-regulation of CBC1 phosphorylation and CBC1 activity
B5,high CO2/bicarbonate-mediated down-regulation of CBC1 phosphorylation with BdMPK5 protein,[8],high CO2/bicarbonate-induced down-regulation of the CBC1 protein kinase activity
B6,high CO2/bicarbonate-mediated down-regulation of CBC1 phosphorylation with BdMPK5 protein,[8],abrogated the high CO2/bicarbonate-mediated downregulation of CBC1 phosphorylation
